Here are results for three substances from article PMC13218722.

Usually Kd stands for a measure of binding affinity in units of concentration. A low value points to higher affinity.

Test [1] deals with LFA-1 (CD11a/CD18) on THP-1 cells and primary human NK cells (human (endogenous in THP-1 and primary NK cells)) (UniProt P20701). Kind of test: flow cytometry on cells; THP-1 cells, with or without CD11a siRNA, fixed, incubated with 250 nM GBP130-Fc or 250 nM hIgG control in FACS buffer 2 hr; PE-Texas Red anti-human secondary antibody. For orientation: In flow cytometry, cells or beads pass a laser one at a time.
Chain of LFA-1 (CD11a/CD18) on THP-1 cells and primary human NK cells (human (endogenous in THP-1 and primary NK cells)) (P20701 26-1170, chain 1 of 2): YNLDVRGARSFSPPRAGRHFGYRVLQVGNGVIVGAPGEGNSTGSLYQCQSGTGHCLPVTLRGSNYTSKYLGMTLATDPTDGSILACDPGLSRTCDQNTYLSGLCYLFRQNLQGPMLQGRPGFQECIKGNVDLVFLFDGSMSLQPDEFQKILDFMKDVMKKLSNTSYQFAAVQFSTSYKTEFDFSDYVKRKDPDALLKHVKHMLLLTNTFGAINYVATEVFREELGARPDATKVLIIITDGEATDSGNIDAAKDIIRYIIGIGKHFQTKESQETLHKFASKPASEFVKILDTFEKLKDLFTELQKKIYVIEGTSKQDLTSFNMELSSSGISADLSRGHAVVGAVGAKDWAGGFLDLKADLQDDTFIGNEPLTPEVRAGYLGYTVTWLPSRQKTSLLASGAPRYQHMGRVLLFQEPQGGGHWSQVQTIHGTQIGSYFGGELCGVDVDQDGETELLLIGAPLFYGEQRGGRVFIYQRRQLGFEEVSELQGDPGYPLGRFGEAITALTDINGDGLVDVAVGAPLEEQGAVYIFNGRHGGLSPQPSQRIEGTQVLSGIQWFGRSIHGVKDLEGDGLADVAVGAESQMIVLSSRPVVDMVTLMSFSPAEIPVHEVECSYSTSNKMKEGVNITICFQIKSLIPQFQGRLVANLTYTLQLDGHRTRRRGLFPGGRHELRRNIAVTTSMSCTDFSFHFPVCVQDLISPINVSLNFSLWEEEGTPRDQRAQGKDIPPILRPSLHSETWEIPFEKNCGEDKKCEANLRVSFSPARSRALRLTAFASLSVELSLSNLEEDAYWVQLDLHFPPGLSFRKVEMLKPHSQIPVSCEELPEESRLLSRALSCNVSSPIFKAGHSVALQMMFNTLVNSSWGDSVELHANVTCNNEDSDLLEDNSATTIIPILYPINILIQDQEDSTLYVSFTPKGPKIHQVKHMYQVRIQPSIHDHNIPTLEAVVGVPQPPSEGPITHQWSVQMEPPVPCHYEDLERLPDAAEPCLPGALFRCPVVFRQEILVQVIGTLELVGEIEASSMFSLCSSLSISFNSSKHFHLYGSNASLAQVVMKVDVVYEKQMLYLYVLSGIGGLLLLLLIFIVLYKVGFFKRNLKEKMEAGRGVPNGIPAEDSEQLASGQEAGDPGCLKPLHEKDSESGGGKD
Chain of LFA-1 (CD11a/CD18) on THP-1 cells and primary human NK cells (human (endogenous in THP-1 and primary NK cells)) (P05107 23-769, chain 2 of 2, further chain): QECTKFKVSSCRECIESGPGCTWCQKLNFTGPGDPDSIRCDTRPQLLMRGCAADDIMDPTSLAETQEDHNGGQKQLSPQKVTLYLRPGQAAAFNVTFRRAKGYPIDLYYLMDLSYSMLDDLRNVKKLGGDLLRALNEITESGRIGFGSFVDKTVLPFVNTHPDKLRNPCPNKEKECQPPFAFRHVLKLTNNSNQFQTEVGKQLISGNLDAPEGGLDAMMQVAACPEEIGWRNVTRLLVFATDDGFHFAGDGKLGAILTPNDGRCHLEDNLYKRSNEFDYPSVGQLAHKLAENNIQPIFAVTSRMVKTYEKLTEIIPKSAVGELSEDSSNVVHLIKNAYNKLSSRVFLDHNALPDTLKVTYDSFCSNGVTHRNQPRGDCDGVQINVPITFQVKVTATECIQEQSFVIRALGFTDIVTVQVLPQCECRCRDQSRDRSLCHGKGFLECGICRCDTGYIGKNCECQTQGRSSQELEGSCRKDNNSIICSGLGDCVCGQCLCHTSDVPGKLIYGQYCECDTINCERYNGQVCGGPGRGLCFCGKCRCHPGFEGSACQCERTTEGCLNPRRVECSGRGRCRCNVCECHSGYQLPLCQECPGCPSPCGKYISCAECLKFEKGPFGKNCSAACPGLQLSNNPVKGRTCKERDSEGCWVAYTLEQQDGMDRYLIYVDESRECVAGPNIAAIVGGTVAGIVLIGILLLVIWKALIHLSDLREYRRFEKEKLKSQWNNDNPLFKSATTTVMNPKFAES

For test [2] the target is unchanged.
Test [3] has as its target LFA-1 αI-Fc fusion protein (human) (UniProt P20701). The test is described as follows: BLI; LFA-1 αI immobilised on AR2G (amine reactive) sensor at 100 ng; PfGBP-130-N as analyte at increasing concentrations; 1× PBS pH 7.4; 25°C; 800 s; 1:1 binding model; Octet K2; n≥3. Background: Biolayer interferometry detects binding as a change in optical thickness at a sensor tip.

Chain of PfGBP-130-N (N-terminal fragment of PfGBP-130, aa 69-270) (domain or fragment) (Q8I6U8 69-270): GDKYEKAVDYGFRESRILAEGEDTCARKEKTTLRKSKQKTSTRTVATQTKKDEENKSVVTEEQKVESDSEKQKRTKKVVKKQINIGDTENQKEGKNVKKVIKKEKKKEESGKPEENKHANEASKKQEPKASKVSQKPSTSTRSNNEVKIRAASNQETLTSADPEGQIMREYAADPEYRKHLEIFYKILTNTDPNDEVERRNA
Chain of LFA-1 αI-Fc fusion protein (human) (P20701 153-335): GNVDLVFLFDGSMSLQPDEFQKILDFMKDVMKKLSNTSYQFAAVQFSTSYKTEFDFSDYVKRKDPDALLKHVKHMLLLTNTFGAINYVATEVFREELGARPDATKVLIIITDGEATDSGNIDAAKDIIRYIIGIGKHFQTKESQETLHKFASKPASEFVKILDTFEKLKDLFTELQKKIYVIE

“PfGBP-130 ECD-Fc (extracellular domain of PfGBP-130 fused to the Fc region of human IgG1) (Fc fusion)”: the fold increase in binding over hIgG isotype control (THP-1 cells) in test [1] came to 3 fold.
As to “PfGBP-130 extracellular domain fused to the transmembrane domain of transferrin receptor (TfR-TM), on CHO K1 cells”, in test [2], the CD25 expression on primary human NK cells co-cultured 24 hr with CHO-PfGBP-ECD (2:1, Poly I:C/Lipofectamine 2000) compared to mock CHO cells, flow cytometry; reduced by anti-CD11a (HI111) came to 40% and the CD69 expression on primary human NK cells co-cultured 24 hr with CHO-PfGBP-ECD (2:1, Poly I:C/Lipofectamine 2000) compared to mock CHO cells, flow cytometry; reduced by anti-CD11a (HI111) was determined as 50%.
In test [3], “PfGBP-130-N (N-terminal fragment of PfGBP-130, aa 69-270) (domain or fragment)” showed a Kd of 17 nM.
